Laboratory results reported in the Immune Epitope Database (IEDB).

Experiments:
[1] = target: HLA-B*44:03; assay: IEDB peptide-MHC binding, purified MHC/competitive/radioactivity; filed as Kd, often an IC50 or EC50 that approximates it; ≥ and ≤ were set here for values at or beyond the usual limits of such assays
[2] = target: HLA-A*02:01; assay: IEDB peptide-MHC binding, purified MHC/competitive/fluorescence; ≥ and ≤ were set here for values at or beyond the usual limits of such assays
[3] = target: HLA-A*30:02; assay: IEDB peptide-MHC binding, purified MHC/competitive/radioactivity; filed as Kd, often an IC50 or EC50 that approximates it; ≥ and ≤ were set here for values at or beyond the usual limits of such assays
[4] = target: HLA-B*40:01; assay: IEDB peptide-MHC binding, purified MHC/direct/fluorescence; filed as Kd, often an IC50 or EC50 that approximates it; ≥ and ≤ were set here for values at or beyond the usual limits of such assays; conditions: source organism: Influenza A virus (A/Moscow/346/2003(H3N2))
[5] = target: HLA-B*15:01; assay: as above
[6] = target: HLA-A*32:01; assay: IEDB peptide-MHC binding, purified MHC/competitive/radioactivity; filed as Kd, often an IC50 or EC50 that approximates it; ≥ and ≤ were set here for values at or beyond the usual limits of such assays
[7] = target: HLA-B*40:01; assay: as above
[8] = target: HLA-B*44:02; assay: as above
[9] = target: HLA-A*11:01; assay: IEDB peptide-MHC binding, purified MHC/direct/fluorescence; filed as Kd, often an IC50 or EC50 that approximates it; ≥ and ≤ were set here for values at or beyond the usual limits of such assays; conditions: source organism: Mycobacterium tuberculosis
[10] = target: HLA-A*01:01; assay: as above
[11] = target: HLA-A*01:01; assay: IEDB peptide-MHC binding, purified MHC/competitive/radioactivity; filed as Kd, often an IC50 or EC50 that approximates it; ≥ and ≤ were set here for values at or beyond the usual limits of such assays; conditions: source organism: Dengue virus 4 Philippines/H241/1956
[12] = target: HLA-A*26:01; assay: as above
[13] = target: HLA-B*58:01; assay: IEDB peptide-MHC binding, purified MHC/direct/fluorescence; filed as Kd, often an IC50 or EC50 that approximates it; ≥ and ≤ were set here for values at or beyond the usual limits of such assays; conditions: source organism: Human immunodeficiency virus 1
[14] = target: HLA-A*02:06; assay: IEDB peptide-MHC binding, purified MHC/competitive/radioactivity; filed as Kd, often an IC50 or EC50 that approximates it; ≥ and ≤ were set here for values at or beyond the usual limits of such assays; conditions: source organism: Vaccinia virus WR
[15] = target: HLA-A*02:02; assay: as above; conditions: source organism: Vaccinia virus WR
[16] = target: HLA-A*02:03; assay: as above; conditions: source organism: Vaccinia virus WR
[17] = target: HLA-A*02:01; assay: IEDB peptide-MHC binding, purified MHC/direct/fluorescence; filed as Kd, often an IC50 or EC50 that approximates it; ≥ and ≤ were set here for values at or beyond the usual limits of such assays; conditions: source organism: Escherichia coli O157:H7
[18] = target: HLA-A*69:01; assay: as above
[19] = source organism: Sudan ebolavirus
[20] = source organism: Dengue virus 1 Brazil/97-11/1997
[21] = source organism: Vaccinia virus WR
[22] = source organism: Dengue virus 2 Jamaica/1409/1983
[23] = source organism: Zaire ebolavirus
[24] = source organism: Human immunodeficiency virus 1
[25] = source organism: Dengue virus 4 Philippines/H241/1956

Q: For KEENLVKSMV, which Kd ([1]; source organism: Dengue virus 1 Singapore/S275/1990) is on record?
A: ≥ 22100 nM

Q: How did the IC50 [2, 19] turn out when QLVCKDHLA was run?
A: 19600 nM

Q: Which Kd [3, 20] does the source give for AAVLMLVAHY here?
A: 508 nM

Q: Which IC50 [2, 19] does the source give for STEGRRVGV here?
A: ≥ 210000 nM

Q: For VETPIRNEW, which Kd [4] is on record?
A: ≥ 20000 nM

Q: KQRGGYAQF was tested. Which Kd ([5]; source organism: Mycobacterium tuberculosis variant bovis BCG str. Pasteur 1173P2) did it give?
A: 323 nM

Q: Which Kd [6, 21] does the source give for RTIYNETSI here?
A: 1.03 nM

Q: Which results are given for GESSPNPTI?
A: Kd [7, 22]: 8.75 nM; Kd [8, 22]: 83.5 nM

Q: With RTMFLFVFR as the sequence, how does the Kd [9] read?
A: 94.6 nM

Q: MHNQDGLIC was tested. Which IC50 [2, 23] did it give?
A: 2340 nM

Q: How did the Kd [6, 21] turn out when VTNVIIIVI was run?
A: 13.7 nM

Q: With EELGDGLAM as the sequence, how does the Kd [1, 20] read?
A: 76.6 nM

Q: What about the Kd [7, 20] of the same sequence?
A: 221 nM

Q: How did the Kd ([10]; source organism: Homo sapiens) turn out when ITDVQDMDP was run?
A: 12300 nM

Q: TTERGGKAY was tested. Which Kd [11] did it give?
A: 917 nM

Q: For YIMYNILPI, which Kd [6, 21] is on record?
A: 39.4 nM

Q: For EEYTDYMPSM, which Kd [1, 22] is on record?
A: 116 nM

Q: And the Kd [7, 22]?
A: 833 nM

Q: For RNPKNENDQY, which Kd [3, 22] is on record?
A: 20.7 nM

Q: EVEDYGFGIF was tested. Which Kd [12, 20] did it give?
A: 1610 nM

Q: How did the Kd [10, 24] turn out when NSSKVSQNY was run?
A: 41.2 nM

Q: What about the Kd [5, 24] of the same sequence?
A: 301 nM

Q: What about the Kd [13] of the same sequence?
A: 742 nM

Q: Which IC50 [2, 23] does the source give for KKILMNFHQ here?
A: 63400 nM

Q: Which Kd ([12]; source organism: Dengue virus 3 Martinique/1243/1999) does the source give for TTTGEIGAI here?
A: 5260 nM

Q: Which IC50 [2, 23] does the source give for MNEENRFVT here?
A: 41100 nM

Q: With RNPAQEDDQY as the sequence, how does the Kd [3, 25] read?
A: 15900 nM

Q: Which results are given for AEIQPQWIA?
A: Kd [1, 25]: 1230 nM; Kd [8, 25]: 26.4 nM

Q: Which Kd [6, 21] does the source give for VTLNISSKF here?
A: 10.6 nM

Q: For SAVPTEWFPT, which Kd [6, 25] is on record?
A: ≥ 34000 nM

Q: For DILQMREIIT, which Kd [14] is on record?
A: 17700 nM

Q: What about the Kd [15] of the same sequence?
A: ≥ 45500 nM

Q: And the Kd [16]?
A: ≥ 56200 nM

Q: With KMLNLNYIV as the sequence, how does the Kd [6, 21] read?
A: 640 nM

Q: With MHNQNALVC as the sequence, how does the IC50 [2, 19] read?
A: ≥ 92000 nM

Q: Which Kd ([7]; source organism: Dengue virus 2 Peru/IQT2913/1996) does the source give for VESWEEIPYL here?
A: 52.8 nM

Q: With ALEKGIKDV as the sequence, how does the Kd [17] read?
A: 6000 nM

Q: And the Kd ([18]; source organism: Escherichia coli O157:H7)?
A: ≥ 20000 nM

Q: What does the source list for AGILARWSSF?
A: Kd [6, 20]: 2820 nM; Kd [8, 20]: 5110 nM

Q: How did the Kd [12, 22] turn out when ELTGYGTVTM was run?
A: 8470 nM

Q: How did the Kd ([18]; source organism: West Nile virus) turn out when TLARGFPFV was run?
A: ≤ 1 nM
